Earlier results on 1 substance are cited in PMC8467547.

One data set addresses IFNAR2 (Homo sapiens) (UniProt P48551).
The target in another data set is IFNAR1 (Homo sapiens) (UniProt P17181).
Chain of UniProt P17181 (P17181 28-436): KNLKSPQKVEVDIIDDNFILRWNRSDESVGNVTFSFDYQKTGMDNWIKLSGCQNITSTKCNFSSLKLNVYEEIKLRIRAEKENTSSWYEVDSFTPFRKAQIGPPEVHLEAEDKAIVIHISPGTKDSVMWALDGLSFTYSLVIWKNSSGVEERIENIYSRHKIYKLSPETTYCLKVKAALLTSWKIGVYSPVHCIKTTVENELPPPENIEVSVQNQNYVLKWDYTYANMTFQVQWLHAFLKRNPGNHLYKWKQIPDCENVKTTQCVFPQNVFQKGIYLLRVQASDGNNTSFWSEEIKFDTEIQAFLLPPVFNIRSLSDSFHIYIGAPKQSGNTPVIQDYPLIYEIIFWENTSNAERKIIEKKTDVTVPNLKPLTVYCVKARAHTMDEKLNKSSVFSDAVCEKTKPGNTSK

Chain of UniProt P48551 (P48551 27-243): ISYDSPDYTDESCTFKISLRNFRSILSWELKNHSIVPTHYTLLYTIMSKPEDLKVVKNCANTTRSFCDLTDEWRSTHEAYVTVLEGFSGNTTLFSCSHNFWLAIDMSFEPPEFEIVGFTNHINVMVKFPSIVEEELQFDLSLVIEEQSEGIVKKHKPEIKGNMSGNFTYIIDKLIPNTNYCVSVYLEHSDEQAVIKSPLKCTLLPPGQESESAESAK

For orientation: Kd means the concentration at which binding is half-saturated. Regarding IFN-beta (from UniProt P01574), the equilibrium dissociation constant (Kd) was 0.2 nM in the data set with IFNAR2 (Homo sapiens) and 100 nM with IFNAR1 (Homo sapiens).
